6 substances from article PMC8002388 can be followed below.

Assay [1] addresses light-activated rhodopsin in rod outer segments (ROS) (UniProt P02699).
For assay [2] the target is unchanged. The source holds these as a separate data set.

Chain of UniProt P02699 (P02699 whole entry): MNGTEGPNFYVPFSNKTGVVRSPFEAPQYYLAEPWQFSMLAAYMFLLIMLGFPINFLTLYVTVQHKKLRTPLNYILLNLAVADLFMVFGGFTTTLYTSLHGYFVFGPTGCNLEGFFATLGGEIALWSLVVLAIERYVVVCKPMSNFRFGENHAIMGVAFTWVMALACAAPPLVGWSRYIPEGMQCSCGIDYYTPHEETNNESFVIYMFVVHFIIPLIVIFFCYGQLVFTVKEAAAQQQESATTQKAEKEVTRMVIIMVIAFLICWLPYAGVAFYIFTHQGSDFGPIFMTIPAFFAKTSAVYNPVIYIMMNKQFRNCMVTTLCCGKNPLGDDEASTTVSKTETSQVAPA

The substance “C-terminally H6-tagged bovine GRK2 L547N (S670A background) (from UniProt P21146 1-689) (enzyme)” displayed a normalized Vmax of rhodopsin (ROS) phosphorylation when [ATP] is varied in assay [1] of 0.8 A.U. The Km for rhodopsin, phosphorylation of light-activated rhodopsin in ROS (50 nM-5 µM) by 20 nM GRK2 with 150 nM human Gβ1γ2 and 5 µM ATP in assay [2] was determined as 0.17 µM.

Turning to “C-terminally H6-tagged bovine GRK2 E532A (S670A background) (from UniProt P21146 1-689) (enzyme)”, the normalized Vmax of rhodopsin (ROS) phosphorylation when [ATP] is varied in assay [1] turned out to be 0.8 A.U. In assay [2], the Km for rhodopsin, phosphorylation of light-activated rhodopsin in ROS (50 nM-5 µM) by 20 nM GRK2 with 150 nM human Gβ1γ2 and 5 µM ATP was 0.14 µM.

Turning to “C-terminally H6-tagged bovine GRK2 L33N (S670A background) (from UniProt P21146 1-689) (enzyme)”, the normalized Vmax of rhodopsin (ROS) phosphorylation when [ATP] is varied in assay [1] was determined as 1 A.U. For the same substance, the Km for rhodopsin, phosphorylation of light-activated rhodopsin in ROS (50 nM-5 µM) by 20 nM GRK2 with 150 nM human Gβ1γ2 and 5 µM ATP in assay [2] is 0.36 µM.

In assay [1], “C-terminally H6-tagged bovine GRK2 E36A (S670A background) (from UniProt P21146 1-689) (enzyme)” gave a normalized Vmax of rhodopsin (ROS) phosphorylation when [ATP] is varied of 0.9 A.U. Also, in assay [2], the Km for rhodopsin, phosphorylation of light-activated rhodopsin in ROS (50 nM-5 µM) by 20 nM GRK2 with 150 nM human Gβ1γ2 and 5 µM ATP is 0.13 µM.

For the substance “C-terminally H6-tagged bovine GRK2 L536N (S670A background) (from UniProt P21146 1-689) (enzyme)”, in assay [1], the normalized Vmax of rhodopsin (ROS) phosphorylation when [ATP] is varied worked out at 1.2 A.U. Further, the Km for rhodopsin, phosphorylation of light-activated rhodopsin in ROS (50 nM-5 µM) by 20 nM GRK2 with 150 nM human Gβ1γ2 and 5 µM ATP in assay [2] was 0.18 µM.

Consider “C-terminally H6-tagged bovine GRK2, wild type (S670A background) (from UniProt P21146 1-689) (enzyme)”, for which the normalized Vmax of rhodopsin (ROS) phosphorylation when [ATP] is varied in assay [1] was 1.3 A.U. In addition, in assay [2], the Km for rhodopsin, phosphorylation of light-activated rhodopsin in ROS (50 nM-5 µM) by 20 nM GRK2 with 150 nM human Gβ1γ2 and 5 µM ATP was found to be 0.24 µM.
